Test results: US20260092103A1 (ALBERT EINSTEIN COLLEGE OF MEDICINE, published 2026)

Biological target: Recombinant Mtb protein GroEL2 (Mycobacterium tuberculosis, UniProt P9WPE7 1-540)
Sequence (P9WPE7 whole entry): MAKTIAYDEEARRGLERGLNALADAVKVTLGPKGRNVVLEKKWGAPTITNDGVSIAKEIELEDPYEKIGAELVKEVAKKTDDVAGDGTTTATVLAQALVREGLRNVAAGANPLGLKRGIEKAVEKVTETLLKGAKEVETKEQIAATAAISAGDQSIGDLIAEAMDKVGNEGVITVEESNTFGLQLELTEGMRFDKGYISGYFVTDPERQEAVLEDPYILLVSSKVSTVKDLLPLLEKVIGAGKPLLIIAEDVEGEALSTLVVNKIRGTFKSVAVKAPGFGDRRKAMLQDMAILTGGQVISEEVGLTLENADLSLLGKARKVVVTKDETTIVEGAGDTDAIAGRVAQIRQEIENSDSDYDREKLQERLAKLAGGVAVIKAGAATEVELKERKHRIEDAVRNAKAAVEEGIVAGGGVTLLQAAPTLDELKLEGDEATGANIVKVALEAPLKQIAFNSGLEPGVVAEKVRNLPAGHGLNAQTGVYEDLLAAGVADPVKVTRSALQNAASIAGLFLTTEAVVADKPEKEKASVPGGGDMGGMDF

B1: anti-GroEL2 antibody 103.11 (antibody, V domains shown)
VH: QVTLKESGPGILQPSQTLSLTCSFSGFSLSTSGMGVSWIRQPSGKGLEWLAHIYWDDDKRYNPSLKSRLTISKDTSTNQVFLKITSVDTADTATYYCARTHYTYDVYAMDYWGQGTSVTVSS
VL: QIVLTQSPAIMSASLGERVTMTCTASSSVSSSYLHWYRQKPGSSPKLWIYSASNLASGVPPRFSGSGSGTSYSLTISNMEAEDAATYYCHQYHRSPWTFGGGTKLEIKR
For B1, the “EC50 (read off the curve)” value was ~0.02 µg/mL.
